Like-named read-outs stand apart in the source and are kept apart here.
System: Human primary keratinocytes
Experiment: Keratinocyte growth in culture media: rhodamine B staining, confluency measured with Operetta plate reader
Assay type: cell-based

B1: KGF: Keratinocyte growth factor, encoded in humans by the FGF7 gene, binds FGFR2b (protein, UniProt P21781 32-194, looked up)
Fibroblast growth factor 7: CNDMTPEQMATNVNCSSPERHTRSYDYMEGGDIRVRRLFCRTQWYLRIDKRGKVKGTQEMKNNYNIMEIRTVAVGIVAIKGVESEFYLAMNKEGKLYAKKECNEDCNFKELILENHYNTYASAKWTHNGGEMFVALNQKGIPVRGKKTKKEQKTAHFLPMAIT
effect of added KGF on keratinocyte growth, FIG. 1: cannot rescue the growth
effect of added KGF on keratinocyte growth, FIG. 1 (added to Green's media + Y27632): fails to enhance keratinocyte growth
effect of added KGF on keratinocyte growth, FIG. 1 (added to base media + Y27632): stimulates growth
effect of adding KGF to Base medium on keratinocyte growth, FIG. 2 (in the presence of ROCK inhibitor SB772077B, no MEFs): critical component in Kelch's medium
